Experimental findings from IntAct's records for PubMed 18342605 are described below.

The labels stand for the following.
B1: Serine/threonine-protein phosphatase PP1-2 (Saccharomyces cerevisiae), P32598 (parent)
chain: MDSQPVDVDNIIDRLLEVRGSKPGQQVDLEENEIRYLCSKARSIFIKQPILLELEAPIKICGDIHGQYYDLLRLFEYGGFPPESNYLFLGDYVDRGKQSLETICLLLAYKIKYPENFFILRGNHECASINRIYGFYDECKRRYNIKLWKTFTDCFNCLPIAAIIDEKIFCMHGGLSPDLNSMEQIRRVMRPTDIPDVGLLCDLLWSDPDKDIVGWSENDRGVSFTFGPDVVNRFLQKQDMELICRAHQVVEDGYEFFSKRQLVTLFSAPNYCGEFDNAGAMMSVDESLLCSFQILKPAQKSLPRQAGGRKKK
partner: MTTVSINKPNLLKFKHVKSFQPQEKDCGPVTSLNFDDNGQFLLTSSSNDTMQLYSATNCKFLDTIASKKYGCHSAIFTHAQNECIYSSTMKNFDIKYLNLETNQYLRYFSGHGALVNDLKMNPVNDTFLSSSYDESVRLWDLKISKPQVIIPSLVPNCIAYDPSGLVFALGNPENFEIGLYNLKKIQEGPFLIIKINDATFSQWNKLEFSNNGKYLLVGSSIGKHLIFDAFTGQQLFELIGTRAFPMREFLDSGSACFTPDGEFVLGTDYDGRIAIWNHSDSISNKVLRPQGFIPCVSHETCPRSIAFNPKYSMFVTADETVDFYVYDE
B2: Serine/threonine-protein phosphatase PP1-2 (Saccharomyces cerevisiae), P32598 (parent)
chain: B1 chain
B3: Serine/threonine-protein phosphatase PP1-2 (Saccharomyces cerevisiae), P32598 (parent)
chain: B1 chain
partner: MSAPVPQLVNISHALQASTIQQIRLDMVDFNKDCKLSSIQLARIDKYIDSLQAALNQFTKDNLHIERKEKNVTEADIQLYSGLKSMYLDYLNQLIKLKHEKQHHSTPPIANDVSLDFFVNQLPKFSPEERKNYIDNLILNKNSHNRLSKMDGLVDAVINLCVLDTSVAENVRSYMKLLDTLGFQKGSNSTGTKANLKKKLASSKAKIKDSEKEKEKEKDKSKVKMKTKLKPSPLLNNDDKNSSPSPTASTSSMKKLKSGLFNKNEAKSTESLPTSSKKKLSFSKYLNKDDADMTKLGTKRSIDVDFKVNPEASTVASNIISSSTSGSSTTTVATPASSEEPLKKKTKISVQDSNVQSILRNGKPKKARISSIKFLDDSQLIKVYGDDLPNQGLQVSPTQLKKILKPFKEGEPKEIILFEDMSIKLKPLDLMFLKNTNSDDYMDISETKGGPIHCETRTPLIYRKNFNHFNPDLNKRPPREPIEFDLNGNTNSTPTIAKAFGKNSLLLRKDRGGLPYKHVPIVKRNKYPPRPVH
B4: RNA end formation protein 2 (Saccharomyces cerevisiae), P42073 (parent)
chain: B3 partner

In the first assay the parent is B1. The settings on record: with swd2_yeast SWD2, P36104.
As for F292A, the “effect of a mutation on the interaction” value is given as “decreasing interaction strength”.
Still for that read-out and setting: under F256A stands “disrupting interaction strength”; under F256A;F292A, “disrupting interaction strength”.

A further assay covers variants of B2. The note with it: with sen1_yeast SEN1, Q00416.
Sequence of sen1_yeast SEN1, Q00416 (Q00416 whole entry): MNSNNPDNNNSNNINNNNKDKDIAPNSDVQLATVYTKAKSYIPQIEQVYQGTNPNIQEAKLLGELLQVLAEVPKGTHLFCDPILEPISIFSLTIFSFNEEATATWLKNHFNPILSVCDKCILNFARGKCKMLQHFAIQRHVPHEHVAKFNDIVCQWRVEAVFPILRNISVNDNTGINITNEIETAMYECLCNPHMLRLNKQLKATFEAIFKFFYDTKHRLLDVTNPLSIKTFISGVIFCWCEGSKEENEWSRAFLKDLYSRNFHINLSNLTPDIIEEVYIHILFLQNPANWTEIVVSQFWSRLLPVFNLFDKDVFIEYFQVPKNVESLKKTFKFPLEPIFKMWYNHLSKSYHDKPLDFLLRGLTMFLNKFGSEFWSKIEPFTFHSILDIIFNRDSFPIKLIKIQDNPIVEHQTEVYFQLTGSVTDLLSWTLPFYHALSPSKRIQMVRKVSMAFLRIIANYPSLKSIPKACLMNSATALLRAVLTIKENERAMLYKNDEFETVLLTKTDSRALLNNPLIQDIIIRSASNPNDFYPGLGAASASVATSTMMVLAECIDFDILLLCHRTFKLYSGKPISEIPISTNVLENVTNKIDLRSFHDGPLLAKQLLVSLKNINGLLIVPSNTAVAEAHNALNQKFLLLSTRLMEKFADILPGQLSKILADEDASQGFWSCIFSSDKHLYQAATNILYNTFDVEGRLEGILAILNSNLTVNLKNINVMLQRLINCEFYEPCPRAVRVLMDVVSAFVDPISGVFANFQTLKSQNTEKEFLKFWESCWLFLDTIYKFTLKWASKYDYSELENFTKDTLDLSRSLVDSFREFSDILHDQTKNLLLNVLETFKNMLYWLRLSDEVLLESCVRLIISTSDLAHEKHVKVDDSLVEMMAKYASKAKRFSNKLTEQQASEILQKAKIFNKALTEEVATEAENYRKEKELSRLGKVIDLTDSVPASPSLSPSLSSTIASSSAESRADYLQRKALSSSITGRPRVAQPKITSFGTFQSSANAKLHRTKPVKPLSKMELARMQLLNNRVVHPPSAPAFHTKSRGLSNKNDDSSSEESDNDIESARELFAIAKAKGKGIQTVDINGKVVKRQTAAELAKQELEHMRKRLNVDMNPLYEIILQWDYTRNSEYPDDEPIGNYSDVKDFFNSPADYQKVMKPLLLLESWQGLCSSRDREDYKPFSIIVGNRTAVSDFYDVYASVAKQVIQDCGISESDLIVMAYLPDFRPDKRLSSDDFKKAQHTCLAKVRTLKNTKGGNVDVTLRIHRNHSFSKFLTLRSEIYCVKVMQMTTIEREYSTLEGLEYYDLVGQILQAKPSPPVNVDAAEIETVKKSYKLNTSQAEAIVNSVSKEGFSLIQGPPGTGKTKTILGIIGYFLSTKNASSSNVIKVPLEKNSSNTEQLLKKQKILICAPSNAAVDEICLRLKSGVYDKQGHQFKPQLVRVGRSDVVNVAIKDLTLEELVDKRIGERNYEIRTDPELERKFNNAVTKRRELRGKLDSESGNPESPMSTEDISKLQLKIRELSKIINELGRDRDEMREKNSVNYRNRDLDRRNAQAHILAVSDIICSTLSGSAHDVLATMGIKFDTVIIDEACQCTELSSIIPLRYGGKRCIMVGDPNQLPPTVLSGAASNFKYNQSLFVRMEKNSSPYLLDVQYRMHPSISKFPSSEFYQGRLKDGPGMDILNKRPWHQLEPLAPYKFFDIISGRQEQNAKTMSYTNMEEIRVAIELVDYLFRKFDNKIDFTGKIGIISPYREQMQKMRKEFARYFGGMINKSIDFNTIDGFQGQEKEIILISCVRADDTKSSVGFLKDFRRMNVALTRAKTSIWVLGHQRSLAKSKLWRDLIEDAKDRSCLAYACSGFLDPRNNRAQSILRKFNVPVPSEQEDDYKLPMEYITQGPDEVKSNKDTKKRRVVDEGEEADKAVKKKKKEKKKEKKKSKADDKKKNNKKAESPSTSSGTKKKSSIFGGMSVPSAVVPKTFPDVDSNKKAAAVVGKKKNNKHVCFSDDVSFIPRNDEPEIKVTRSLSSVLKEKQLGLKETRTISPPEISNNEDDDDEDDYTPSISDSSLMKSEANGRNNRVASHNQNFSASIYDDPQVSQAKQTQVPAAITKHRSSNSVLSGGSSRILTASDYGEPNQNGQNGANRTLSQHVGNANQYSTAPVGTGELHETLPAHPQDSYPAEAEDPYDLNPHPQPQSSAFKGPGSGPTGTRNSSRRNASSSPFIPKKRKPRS
F292A: the “effect of a mutation on the interaction” value was “decreasing interaction strength”.
On the same count and under the same terms, as for F256A, the entry is “disrupting interaction strength”; as for F256A;F292A, “disrupting interaction strength”.

Variants of B3 are the subject of another assay. The settings on record: with ref2_yeast REF2, P42073.
Turning to F292A, the “effect of a mutation on the interaction” value is recorded as “decreasing interaction strength”.
Same read-out and setting: as for F256A;F292A, the entry is “disrupting interaction strength”.
The same measure, in the same setting: under F256A stands “disrupting interaction strength”.

Variants of B4 are the subject of a further assay. The note with it: with pp12_yeast GLC7, P32598.
For the variant F374A, the “effect of a mutation on the interaction” value is “disrupting interaction strength”.
